According to the domain aggregation screens of Martell et al. (2025):

Assay: soluble fraction after stress (log2 fold change); higher = more stays soluble; pooled small domains, quantitative proteomics
Conditions: stress: 75 degC
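Further: 20 min heating vs room temperature control held 20 min.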

Going from “HMELDIGKKAIVIEKIDPEAGTGRVRIEGVDWGAKTADSSVIEKGETVVVKAKGAAFVTVAK” to “HMELEAFPNPTDMFLSFTTKEKTPLAIYDINGKQVLYVEQITSSSKINVSKLSEGVYFAKTNQGTVKWVK”, the “soluble fraction (log2)” value falls from 0.0983 to -2.35.

Compared with “HMELEQLKSQLTGFLKANREQIFTAQNLADGLRMTDSQGYKQVVNALNASVRDGDVIDIKNGYQYNKN”, “HMELEWENYSLAGEIKTTVMLYQNRRNGLPEEAKQKADALMKQLKQAVIENDAQKVEKIDDALTALLFE” is lower in “soluble fraction (log2)” value: 0.0444 for the first, -0.564 for the second.

First: HMELGYTPNNLRSVRAKYGLTQKQVAEITGLKTWHPVNRWEAPVEAAYHADMPHTKWLKLLDELSSR
Second: HMELKYIDYDEALVVYAKTVTASGGGLSGVKDEGGIRKVLDFVQNDLYYPTFVDKLTYLVFGL
The “soluble fraction (log2)” value of the first is lower: -1.45 for the first, 0.168 for the second.

First: HMELLPAERRQQLVDWFKSNQAGTSQDLARMFGISVSTIRRDLDLLASEGLVKRTHGGAVSIR
Second: HMELLPFEFARANRVLLRVNESDLVVSPDANHSAVTEILRLNNNIETIKSVDAEAFDKILSSIYSG
The “soluble fraction (log2)” value of the first is higher: -0.055 for the first, -0.804 for the second.

Going from “HMELLSVPSRLGTFFLGGEAGHIIRLYLPGDPTPRIAEHETPVLSEARRQLLEYLAGRRTAFSFPL” to “HMELNEIEFENLKESIIIHLEKESLSPHELVKHIQTIHPDKVTAVIQWMLENGFIKTDAGGQLTLVSK”, the “soluble fraction (log2)” value rises from -0.0691 to 0.199.

“HMELNELTSRELMVAEQVARGASNREISEALSISERTVKAHLSAAFEKLGVRDRVQLALAMNNIPT” and “HMELNKNDLKIIKNISHIYPYFTPVKILQLILSKKFKTIDYNKILKSTSILTTDRSHLYYILNN” are within 0.2 log units of each other in “soluble fraction (log2)” value: -0.106 for the first, 0.0816 for the second.

Going from “HMELPSDEHLDDISHLARIGHKKGLQEKIIQLEQQGLASAEFIQQLKTLTNNFQFEKIIQWVDSEL” to “HMELRIREILESKDIKVSSLAETVGITRANMSNIVNGKSTPSLETLEKIANALGVDITELFA”, the “soluble fraction (log2)” value falls from -0.055 to -0.432.

Compared with “HMELSAEGWVDGTGVRMRASASTDSEVVRVTEDGESLDITGVSGTWYRVTAGGVSGYIRSDYVSLEEP”, “HMELSAQEIGRRLRIARENADIRQDDAAQVIGMSRPTLVSIEKGVRRVRIQEIQMLARHYGVSVNALLR” is lower in “soluble fraction (log2)” value: -0.0699 for the first, -2.2 for the second.

First: HMELSVTDRTRQIRHILKEKGRVEFTSLFEELTKPYVIVTFLSVLEMSKNNELMITQDKTFGSITLEMKG
Second: HMELVIGESLAVELLRPGKEDGQALGYLPDGSMVVVNNGRAFVGKRVTAEIIGVIRSAGGKMVFSNLLGE
The “soluble fraction (log2)” value of the first is higher: -0.446 for the first, -3.36 for the second.

Compared with “HMEMDITIQMRTLVEELNRASDAYYNGRGELMTDYEWDAKFDQLKQLESQSGVVLPDSPTHRV”, “HMEMELNHVARRAGRLSGFLKGELRLSTGLMNRLKWSNAILVNGKPARTNAQVEPGDRITVILD” is lower in “soluble fraction (log2)” value: -0.244 for the first, -2.35 for the second.

“HMEMLQENIRNLRKAKGWSQEELAIKLNVVRQTVSKWEKGLSVPDSQMLIRIADELDTTVAILLG” and “HMEMLQRFIFLENVSSTQVESAIKELHPNLNLKRVKLSFPGADTVLLKGPKQDLELAEELIRHLDRSE” are within 0.2 log units of each other in “soluble fraction (log2)” value: -0.705 for the first, -0.652 for the second.

Compared with “HMEMPGGVMRTLSTIAYNQPVLQSKLVKVRGPRAYEDVHILRDMGLVSARSVGQTVELSTTPKFAEQF”, “HMENEIFVPKVFMDWYNKVDKSIKVFKAFNLIEKETDPRLKEWVEDNQDEFAKIWLGQLLPVV” is higher in “soluble fraction (log2)” value: -0.622 for the first, -0.155 for the second.

First: HMENFIPDDPKRIEIGMSVLHQRFGKGKVMQLEGNLPDMKATVNFEGEGQKQLLLKYARLKIV
Second: HMENIDVGQDYKVTMNTIQNLMKTGLVTGTQYKELLREMGVHSGMGAITAQQHQIALDFLNKTMDSA
The “soluble fraction (log2)” value of the first is lower: -0.99 for the first, no less than 1.04 for the second.

Going from “HMENIIKISASYEGLRVDQFLSNYLKISRSKVQKYISEEKIFLNNVPTKTNRKVKLDDIISYNLNF” to “HMENITTILRSIKNEIKKNSTFVGDDFVNQARSMNQGQIKEKSIYGHGTKKEIEELRDEGVDVLNIPWIT”, the “soluble fraction (log2)” value rises from -3.01 to -0.104.

Going from “HMENKIIKNAAHATLKVKKDAGIEITTELIREAVILFHRIYSPNDNPNINWERIINELESHYT” to “HMENLFPDYTMQDYRIVRSELSSKFKVQTVPVTTATATENKIVRQEPEAGSRITEGMTVILYYSIGPE”, the “soluble fraction (log2)” value rises from -3.66 to -1.51.

Compared with “HMENLRLSELTVERGHRLAGRTLADIASAPNSPKYLIVLIQRGQETVIPTGSTVILPGDVLILAQS”, “HMENMSFGTKLYTWLYGKLVGSDEIGNKYYTNINDPSDLNAKRWVIFNGEIEASKIPPHWHAWLHKSIDK” is higher in “soluble fraction (log2)” value: -1.7 for the first, -0.918 for the second.

“HMENMTLGQRIQALRKQHGLSQEGLGERLGVSRQAISRWEMDGAVPEVDKLIAMARLFGVSLNQLLGVE” and “HMENNIPANIKALIISYVNQNYPGAVIHSIERNSNGTYDVEIYYNNREYDLLFDAQGNFISGNVDDQ” are within 0.2 log units of each other in “soluble fraction (log2)” value: -0.193 for the first, -0.0333 for the second.

Compared with “HMENNIRLSVPDTESGQRIDSYLAEQIPGLTRSAVQNLLAEQAVTIAGKAVKKNYKLLGGEDILVQLPEVR”, “HMENPPISVVIPPSFRGQRIDKALGSLIGDYSRSKIQQWLQSGLVQSAGEPLLPKYTVLGNEQILIAVPS” is lower in “soluble fraction (log2)” value: 0.217 for the first, -0.13 for the second.

“HMENQGEDMRQQVKALVNADKTNITKLATATGYSRSTISMYLAGNYKGDVEAVERRLEEYMKTQG” and “HMENSYSVEDLALKAAISVDTIRYYQGLGLISPPQKNGRRAIYGNDHISRLEEIKKLAFEGFSLRQISLL” are within 0.2 log units of each other in “soluble fraction (log2)” value: -0.0512 for the first, 0.111 for the second.

First: HMENTIPSVIGRTLSDGVFLLESYGYVKGNVSEEFSEMPIGVIIRQFPGAGSAAEAGTRVDLVVSKGEEIV
Second: HMENVALYIRLKSMASVYDDVHGYNIEWIKSMIGLSIDIEKLRTVLEDVSWITKVEEDVYSFSKNAKPFE
The “soluble fraction (log2)” value of the first is higher: 0.124 for the first, -4.31 for the second.

Compared with “HMENVQLRNFAIKATEAGIIKLSSDQRTFMWASNQKKLMTVPFDEHPYSAMAQFFKTDEGLAVFKSIEKKL”, “HMEPADALVAALVARGVSPSTARITVKQYPATRIQPQLEVFDYLVAQKDPKVSRNPPGFLLSAIRGEYA” is higher in “soluble fraction (log2)” value: -1.47 for the first, -0.718 for the second.

First: HMEPAPELTPREQQVLARIALGMTDKAIAEELGVSHQTVRNHVARIYQKIKVHSRSQAVVWAREKGI
Second: HMEPDEESVRLKEEILSRIDYWHTTMPYMGTRKLAAKLRTEGYAVGRKLVRTYMREMGIHAVYP
The “soluble fraction (log2)” value of the first is lower: -1.47 for the first, -0.103 for the second.

“HMEPELSVDMKPLDGLLLAIKKELQAAQMYTRLARASADAEQKMVFEQLANMEKGHKARLEDIYT” and “HMEPESTMIEISETLTNERLDRYLATKLPNVSRGGIQRLLREGNILVNGKKAKPTQHPVAGQKIEITWPNP” are within 0.2 log units of each other in “soluble fraction (log2)” value: -0.079 for the first, -0.0291 for the second.

“HMEPEYIGELEKRIKKLKTHTYSSIDRLMKSISKKYKITTQVLHDDFKNKHNEIPDEWVKQF” and “HMEPKIKQIVPNVVNYPVEDAKNVLVNSGLIVQIRGQGNIVYDQVPKGGAEVTRGTTVILDLNPPPGA” are within 0.2 log units of each other in “soluble fraction (log2)” value: -0.126 for the first, -0.0576 for the second.

“HMEPKQIEVPNLVGISSAAARQTLSALGLHAVVKDSIWSETERIDTVLEQNPAGGALIKPEGTVYLRVSR” and “HMEPLIRTLEEQIAEKIKNYRKGTRVYDAEHVDRWISQLPEEERMVVLTETNRLLEQNYVDQAKLME” are within 0.2 log units of each other in “soluble fraction (log2)” value: -0.0959 for the first, -0.0452 for the second.

“HMEPMLEIFDAKIDLADVLAVESGLVRLRGGAEVTSPRVDVDAGARLELDSGARLNVERLSY” and “HMEPMTDQQILEGFAEFKRQNPDLMNRPATQAIVNLTLPGGTPISFRSGAGAAALNQYLESIGMRAGP” are within 0.2 log units of each other in “soluble fraction (log2)” value: 0.155 for the first, 0.0601 for the second.

Going from “HMEPPAPAPDIPYPSRVTVRREVDGWPHYYGTWTRTPPVLGYEGIWLVGVSLDGKVQFVPVDDVTIA” to “HMEPREEFTFADLRANGLNGTAAAAGRRAALGAALGIGYGNAKQFLRRLNHYGVTRSEWEAALADLDE”, the “soluble fraction (log2)” value rises from -1.17 to -0.752.

First: HMEPSERYKALQSLLPDYAKRLKKKGVTRHQLFLEYRLTHPDGYARSRFGTYFQAYLALSHP
Second: HMEPTLVVARDKDAKSPLVAKLMKELGVDAAPRVIVDDSVIGGAKLSHNHTEIDATYKTALINLYQAIT
The “soluble fraction (log2)” value of the first is lower: -2.32 for the first, 0.19 for the second.

First: HMEPVFSDPARQTLYQEVMELPAKYRVPLYLYYYEGYKVDEVGELLGLNASTVQTRLARARAKLKIQL
Second: HMEQETVTVPDLVGKDVVAAQAELHEMGLSGKPDGTGTTVVSQFPVAGARVLKHTNVILYTED
The “soluble fraction (log2)” value of the first is lower: -0.489 for the first, 0.296 for the second.

First: HMEQFRENIVRIYMEIDDYENGAKFLEMGNNRDASFYELAGDFYKYFGENELANENYDLAISA
Second: HMEQIPEEYKKIYSLITDIPININDIAKKSLLELREVSSKLTMLELDGKVVKLPGNMYIRGDL
The “soluble fraction (log2)” value of the first is lower: -0.629 for the first, -0.195 for the second.

Compared with “HMEQKELAPLVPQEDGSVKLTNLAGYSMREVAAALEGGNLSLIPIGSGTSWKQDPAPGTVLQPGNTVTVYF”, “HMEQPLSLKLANNAFSRFWGNANPAEKDTQPNNSDIAKWVIEQSGGKITQTMADKIAQIIRPEWAA” is higher in “soluble fraction (log2)” value: -0.297 for the first, 0.372 for the second.

Going from “HMEQSGDELKTWVDQAIAAYPEKVKEYQQGKKGLLALFIGEVMKRSKGTADPKKVNQLVTEALS” to “HMEQTMNDMLKLVDLLPQNQQDIVRMRFYENMSFKEIAESNQISINTALGRMRYAILNLRKYAAERNL”, the “soluble fraction (log2)” value falls from -0.164 to -2.59.

Compared with “HMEQVLDEEIIKSAVQKVIKDNPSAVSDYKAGKKTAFQFLIGKAMAELQGKGHPGKISELLEKE”, “HMEQVQQIPIEELFPFKEHPFKVLDDEAMQRTVESVAQYGVLAPLIARPRPEGGYEIISGHRRQHAAELYR” is lower in “soluble fraction (log2)” value: 0.474 for the first, -0.0469 for the second.

Going from “HMEQWVSIEVEPGIRLDVALTEATQKSRSFIQNLIAEQRVLVNGQPKKANYKVRPGDHVELNYPEPT” to “HMEREKTYLMPDLIGRKAERVVPRLQASGFKVEDIRHVYYPGLEKGVIVRQSPPGGYPIQKRNLINLEVS”, the “soluble fraction (log2)” value falls from -0.29 to -0.581.

Going from “HMERLKKYLDDVRTFLPGTNPKKVDEILREIESHVLERAEREHGEVNDNAVAMSIKEYGSPEEVAARYYEG” to “HMERLSNQVYAILKEMIADYRFNPGARINVEQIAKEVGASRTPVWEAVHRLVQEGLLENIPNRGVFML”, the “soluble fraction (log2)” value falls from 0.809 to -1.45.
